Tests used:
[1] = biological target: GST-tagged version of human FcγRIIIA (human) (UniProt P08637); experiment: AlphaLISA vs biotin-huIgG, supernatant, round 1
[2] = biological target: GST-tagged version of human FcγRIIIA (human) (UniProt P08637); experiment: AlphaLISA vs biotin-huIgG, supernatant, round 3
[3] = biological target: GST-tagged version of human FcγRIIIA (human) (UniProt P08637); experiment: AlphaLISA vs biotin-huIgG, supernatant, round 2

Chain of GST-tagged version of human FcγRIIIA (human) (P08637 17-208 limits assumed): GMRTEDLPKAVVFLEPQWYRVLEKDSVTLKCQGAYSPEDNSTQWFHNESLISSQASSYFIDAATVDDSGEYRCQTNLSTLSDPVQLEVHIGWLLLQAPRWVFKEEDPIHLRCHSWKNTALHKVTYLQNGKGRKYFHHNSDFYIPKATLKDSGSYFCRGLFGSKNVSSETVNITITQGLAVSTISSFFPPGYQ

% inhibition [1]	Alpha signal [1]	% inhibition [2]	% inhibition [3]	Alpha signal [3]	Alpha signal [2]	Substance
73%	20600	51%	75%	20100	–	scFv-Fc/Fc, K290G in dummy Fc (Fc fusion)
50.8%	37400	48.8%	54.4%	36700	40300	scFv-Fc/Fc, K290Q in scFv-Fc (Fc fusion)
24.8%	57100	–	–	55900	54600	scFv-Fc/Fc, K290S in scFv-Fc (from UniProt P0DOX5 218-449; P0DOX5 218-449) (Fc fusion)
29.1%	53900	24.2%	34.6%	52600	59500	scFv-Fc/Fc, K290W in scFv-Fc (Fc fusion)
87.9%	9170	87%	90.2%	7890	10200	scFv-Fc/Fc, K290Y in scFv-Fc (Fc fusion)
89.8%	7790	91.1%	92.2%	6260	7020	scFv-Fc/Fc, L235S in scFv-Fc (Fc fusion)
67%	–	67.6%	73.7%	21100	–	scFv-Fc/Fc, L309E in scFv-Fc (Fc fusion)
20.4%	60500	19.1%	23.5%	61500	63500	scFv-Fc/Fc, L309S in scFv-Fc (Fc fusion)
20.4%	60500	23.3%	27.8%	58100	60300	scFv-Fc/Fc, M252D in dummy Fc (Fc fusion)
68.7%	23800	63.6%	–	19700	28600	scFv-Fc/Fc, N315A in scFv-Fc (Fc fusion)
37.4%	47500	43.3%	39.6%	48500	44500	scFv-Fc/Fc, R255N in dummy Fc (Fc fusion)
21.9%	59300	22.3%	38%	49800	61000	scFv-Fc/Fc, R255S in dummy Fc (Fc fusion)
91.9%	6120	87.4%	92.3%	6160	9870	scFv-Fc/Fc, S239D in dummy Fc (Fc fusion)
–	24300	–	79%	16900	21400	scFv-Fc/Fc, S239D in scFv-Fc (Fc fusion)
84.9%	11500	66.7%	85.4%	11800	26100	scFv-Fc/Fc, S239E + K340N in dummy Fc (Fc fusion)
84%	12200	82.9%	87.1%	10400	13400	scFv-Fc/Fc, S298C in scFv-Fc (Fc fusion)
65.1%	26500	73.5%	76.3%	19100	20800	scFv-Fc/Fc, T256Q in scFv-Fc (from UniProt P0DOX5 218-449; P0DOX5 218-449) (Fc fusion)
59.9%	30500	63.3%	60.5%	31800	28800	scFv-Fc/Fc, T256V in dummy Fc (Fc fusion)
47%	40300	57.4%	55.3%	35900	33400	scFv-Fc/Fc, V302Q in dummy Fc (Fc fusion)
66.7%	25300	68.5%	72.9%	21800	24800	scFv-Fc/Fc, Y296W in scFv-Fc (Fc fusion)
0%	76000	0%	0%	80400	78600	scFv-Fc/Fc, no substitution (charge pair mutations only) (Fc fusion)

The next lines start with the substance.

Substance	% inhibition [1]	Alpha signal [1]	% inhibition [2]	% inhibition [3]	Alpha signal [3]	Alpha signal [2]
scFv-Fc/Fc, K290G in scFv-Fc (from UniProt P0DOX5 218-449; P0DOX5 218-449) (Fc fusion)	31.1%	52400	–	33.1%	53800	55700
scFv-Fc/Fc, K334A in scFv-Fc (Fc fusion)	32%	51700	28.2%	31.9%	54800	56500
scFv-Fc/Fc, K334L in dummy Fc (Fc fusion)	64.9%	26700	68.1%	70.9%	23400	25100
scFv-Fc/Fc, K334M in scFv-Fc (Fc fusion)	–	22300	–	75.4%	19800	24400
scFv-Fc/Fc, K334V + D413N in dummy Fc (Fc fusion)	73.4%	20200	67.6%	73.4%	21400	25400
scFv-Fc/Fc, K334V in dummy Fc (Fc fusion)	64.4%	27100	61.6%	66.5%	26900	30200
scFv-Fc/Fc, L234Y in scFv-Fc (Fc fusion)	27.5%	55100	35.7%	42.9%	45900	50500
scFv-Fc/Fc, L309C in dummy Fc (Fc fusion)	21.4%	59700	21.4%	30.8%	55600	61800
scFv-Fc/Fc, L309K in scFv-Fc (Fc fusion)	69.2%	23400	65.4%	76.5%	18900	27200
scFv-Fc/Fc, N315S in scFv-Fc (Fc fusion)	65.8%	26000	63.4%	75.8%	19500	28800
scFv-Fc/Fc, Q311M in dummy Fc (Fc fusion)	82.7%	13100	87.5%	86.2%	11100	9800
scFv-Fc/Fc, S239E in dummy Fc (Fc fusion)	–	32500	–	–	34800	33700
scFv-Fc/Fc, S239N in scFv-Fc (Fc fusion)	58%	31900	68.8%	67.5%	26100	24500
scFv-Fc/Fc, S298A in scFv-Fc (Fc fusion)	76.5%	17900	65%	68.5%	25300	27500
scFv-Fc/Fc, T307E in scFv-Fc (Fc fusion)	71.5%	21700	67.2%	76.4%	18900	25800
scFv-Fc/Fc, T307P in dummy Fc (Fc fusion)	75%	19000	82.1%	75.1%	20000	14100
scFv-Fc/Fc, T307S in scFv-Fc (Fc fusion)	41.3%	–	34.6%	42.1%	–	51400
scFv-Fc/Fc, Y296L in scFv-Fc (Fc fusion)	23.1%	58500	18.2%	24.7%	60600	64300
